Measurements from the RNAGym collection of RNA variant scans (doi:10.7554/elife.80360).

B1: CPEB3 Ribozyme (parent)
chain: GGGGGCCACAGCAGAAGCGUUCACGUCGCGGCCCCUGUCAGAUUCUGGUGAAUCUGCGAAUUCUGCUGU

Variants of: B1
Assay: self-cleavage, relative activity (ratio to wild type); higher = more cleavage; co-transcriptional

Going from G11C C27G to G11C C45G, the self-cleavage rises from 0.104 to 0.767.

First: G11A C33A
Second: A10G A42C
The self-cleavage of the first is higher: 0.853 for the first, 0.668 for the second.

First: G11U A59U
Second: G11U A59C
The self-cleavage of the first is higher: 0.395 for the first, 0.35 for the second.

Going from A10G U67C to G11A U21G, the self-cleavage falls from 0.967 to 0.285.

Compared with G11U C24A, G11A A13G is lower in self-cleavage: 0.308 for the first, 0.184 for the second.

Going from G11A A13C to G11A G19A, the self-cleavage falls from 0.182 to 0.103.

First: C12A A16U
Second: A10G G25U
The self-cleavage of the first is higher: 0.27 for the first, 0.132 for the second.

Compared with A10G G25A, G11U A52U is higher in self-cleavage: 0.0673 for the first, 0.851 for the second.

Compared with G11U A52C, A10U G58A is higher in self-cleavage: 0.761 for the first, 0.975 for the second.

Compared with G11A G48A, A10G A40U is lower in self-cleavage: 0.906 for the first, 0.301 for the second.

Compared with G11C U21A, C12A G28A is lower in self-cleavage: 0.827 for the first, 0.13 for the second.

Compared with A10G C34U, G11A G56C is lower in self-cleavage: 0.982 for the first, 0.437 for the second.

Compared with A10G C35U, A10G C35G is lower in self-cleavage: 0.892 for the first, 0.496 for the second.

Compared with A10G C35A, G11C U49G is higher in self-cleavage: 0.197 for the first, 0.866 for the second.

Compared with G11C U49C, G11C G30U is lower in self-cleavage: 0.803 for the first, 0.225 for the second.

Compared with A10U G31U, A10U G31A is higher in self-cleavage: 0.895 for the first, 0.976 for the second.

Going from C12A G25A to C12A G25U, the self-cleavage falls from 0.155 to 0.1.

Compared with G11A U49C, A10G C33U is higher in self-cleavage: 0.903 for the first, 0.953 for the second.

First: A10G C33G
Second: C12A C34U
The self-cleavage of the first is higher: 0.854 for the first, 0.834 for the second.

Going from A10U G65U to A10U G65A, the self-cleavage rises from 0.796 to 0.842.

Going from A10U A15C to A10U U26G, the self-cleavage rises from 0.746 to 0.994.

Going from A10U U43G to A10U U43C, the self-cleavage rises from 0.831 to 0.975.

First: A10U U43A
Second: G11U A16G
The self-cleavage of the first is higher: 0.941 for the first, 0.572 for the second.

First: G11U G30U
Second: A10G G41A
The self-cleavage of the first is lower: 0.263 for the first, 0.37 for the second.

Going from A10G G41C to G11U U61C, the self-cleavage falls from 0.326 to 0.271.

Compared with A10G C29A, A10G C29U is lower in self-cleavage: 0.324 for the first, 0.126 for the second.

Going from G11U C63A to A10U U62C, the self-cleavage rises from 0.418 to 0.757.

Going from A10U U62A to C12A G14U, the self-cleavage falls from 0.882 to 0.13.

First: C12A G14A
Second: A10U C35A
The self-cleavage of the first is lower: 0.148 for the first, 0.245 for the second.

Going from A10U C35G to A10G C32A, the self-cleavage rises from 0.64 to 0.847.

First: A10G C32U
Second: C12A C45U
The self-cleavage of the first is higher: 0.939 for the first, 0.72 for the second.

First: G11A C22G
Second: G11A C45A
The self-cleavage of the first is lower: 0.119 for the first, 0.821 for the second.

Going from G11A C45U to A10U C18A, the self-cleavage falls from 0.906 to 0.222.

First: A10U C18U
Second: C12A A23C
The self-cleavage of the first is higher: 0.883 for the first, 0.6 for the second.

Going from G11A U53A to C12A C29A, the self-cleavage falls from 0.533 to 0.121.

Compared with G11C G56C, A10U U44A is higher in self-cleavage: 0.176 for the first, 0.967 for the second.

Compared with G11U C34A, G11C C12U is lower in self-cleavage: 0.694 for the first, 0.452 for the second.

Compared with G11C C12G, G11U C45G is higher in self-cleavage: 0.211 for the first, 0.772 for the second.

Going from G11C U44G to G11C U44C, the self-cleavage falls from 0.662 to 0.459.

Compared with G11C G50C, G11U U55C is lower in self-cleavage: 0.748 for the first, 0.302 for the second.

Compared with G11U U55A, A10G C12G is higher in self-cleavage: 0.36 for the first, 0.742 for the second.

First: A10G C12U
Second: A10G C12A
The self-cleavage of the first is higher: 0.948 for the first, 0.356 for the second.

First: A10G G65A
Second: A10G G65U
The self-cleavage of the first is higher: 0.337 for the first, 0.303 for the second.

Compared with A10C U64C, A10C U64A is higher in self-cleavage: 0.769 for the first, 0.779 for the second.

Going from A10U A59G to G11A C32U, the self-cleavage falls from 0.968 to 0.95.

Compared with G11C U38C, G11U U64G is lower in self-cleavage: 0.7 for the first, 0.447 for the second.

Compared with G11U U64C, G11C G58U is higher in self-cleavage: 0.498 for the first, 0.896 for the second.

Compared with G11C G58C, C12A C66U is lower in self-cleavage: 0.751 for the first, 0.723 for the second.

Compared with A10U A40G, A10U C29A is lower in self-cleavage: 0.951 for the first, 0.722 for the second.

Compared with G11A U62G, G11A C66G is higher in self-cleavage: 0.331 for the first, 0.917 for the second.

Going from G11A C66A to A10U C57A, the self-cleavage falls from 0.818 to 0.273.

Going from G11A U44A to A10U G17A, the self-cleavage falls from 0.697 to 0.547.

Going from A10U U61A to A10U U61G, the self-cleavage falls from 0.911 to 0.78.

Compared with A10U A60G, A10U U64G is lower in self-cleavage: 0.953 for the first, 0.897 for the second.

First: A10U U64A
Second: C12A A60C
The self-cleavage of the first is higher: 0.8 for the first, 0.264 for the second.

Going from C12A A42U to G11C G17A, the self-cleavage falls from 0.402 to 0.103.

First: A10G G31C
Second: A10U U69C
The self-cleavage of the first is lower: 0.322 for the first, 1.07 for the second.

First: A10U U69G
Second: G11A A52G
The self-cleavage of the first is higher: 1.06 for the first, 0.928 for the second.

Compared with G11C U61C, G11A C35G is higher in self-cleavage: 0.203 for the first, 0.352 for the second.

Going from A10G A59G to A10U A16U, the self-cleavage falls from 0.925 to 0.877.

First: A10U A16G
Second: G11A U67A
The self-cleavage of the first is lower: 0.924 for the first, 0.934 for the second.

Going from A10U G28U to A10U G28A, the self-cleavage falls from 0.14 to 0.139.

Compared with A10U G28C, G11C U55A is higher in self-cleavage: 0.137 for the first, 0.271 for the second.

Compared with G11C U55G, G11C G31C is higher in self-cleavage: 0.165 for the first, 0.167 for the second.

Compared with G11C G31U, G11C C54A is lower in self-cleavage: 0.536 for the first, 0.252 for the second.

First: G11U G41C
Second: A10G A60C
The self-cleavage of the first is higher: 0.197 for the first, 0.176 for the second.

Compared with A10G A60U, G11A G37U is lower in self-cleavage: 0.221 for the first, 0.156 for the second.

Going from G11U U36A to G11C U69G, the self-cleavage rises from 0.164 to 0.97.

Compared with G11C U69C, G11C U69A is lower in self-cleavage: 1.01 for the first, 0.921 for the second.

Going from G11C U43G to G11U G68A, the self-cleavage rises from 0.279 to 0.932.

Compared with G11C C39U, G11C A23C is higher in self-cleavage: 0.399 for the first, 0.672 for the second.

Compared with G11C A23G, G11A C27A is lower in self-cleavage: 0.626 for the first, 0.2 for the second.

First: G11A C27U
Second: G11A C27G
The self-cleavage of the first is lower: 0.107 for the first, 0.139 for the second.

Compared with A10U C12A, A10U C12U is higher in self-cleavage: 0.707 for the first, 0.913 for the second.

Compared with C12A C27G, A10G U55G is higher in self-cleavage: 0.171 for the first, 0.36 for the second.

Going from G11C G65A to G11A U69C, the self-cleavage rises from 0.559 to 1.03.

First: G11U G25C
Second: G11A U20A
The self-cleavage of the first is lower: 0.0857 for the first, 0.157 for the second.

First: A10U U53C
Second: G11U U53A
The self-cleavage of the first is higher: 0.871 for the first, 0.562 for the second.

First: A10U G68U
Second: A10U G68A
The self-cleavage of the first is lower: 0.982 for the first, 1.05 for the second.

First: A10U C27A
Second: A10U C27U
The self-cleavage of the first is lower: 0.272 for the first, 0.547 for the second.

First: A10G G47U
Second: A10G C45G
The self-cleavage of the first is higher: 0.919 for the first, 0.839 for the second.

Going from G11U G14A to G11A A60C, the self-cleavage rises from 0.131 to 0.205.

Compared with G11U G28A, A10G G50A is higher in self-cleavage: 0.125 for the first, 0.949 for the second.

For G11C G68U, the self-cleavage was 0.881.
